Target: human GLP-1 receptor (human) (UniProt P43220)
Assay: cell-based or functional assay

human GLP-1 receptor (human), sequence (P43220 24-463): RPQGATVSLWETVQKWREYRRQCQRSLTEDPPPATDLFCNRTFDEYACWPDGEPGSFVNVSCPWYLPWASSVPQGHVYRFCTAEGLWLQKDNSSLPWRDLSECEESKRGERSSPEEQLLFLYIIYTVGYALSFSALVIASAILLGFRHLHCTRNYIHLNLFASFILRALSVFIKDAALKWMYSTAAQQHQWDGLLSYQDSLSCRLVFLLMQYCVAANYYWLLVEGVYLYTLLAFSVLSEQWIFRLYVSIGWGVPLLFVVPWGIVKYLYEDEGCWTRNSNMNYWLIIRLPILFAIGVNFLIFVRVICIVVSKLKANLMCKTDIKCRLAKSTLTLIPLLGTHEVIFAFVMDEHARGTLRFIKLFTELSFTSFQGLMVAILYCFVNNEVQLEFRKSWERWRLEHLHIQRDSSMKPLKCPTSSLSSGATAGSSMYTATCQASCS

- Human GLP1R EC50: 35 pM
Substance: Dulaglutide (Fc fusion)

From patent US20190330296A1
